Measured values as given in article PMC8897276.
Read-outs that look alike come from different tables or passages of the source.

What was measured:
[1] = molecular target: A2Moo (ovomacroglobulin), the Xenopus laevis egg Alpha-2-Macroglobulin homolog (Xenopus laevis); test: cryo-EM structure
[2] = molecular target: A2Moo (ovomacroglobulin), the Xenopus laevis egg Alpha-2-Macroglobulin homolog (Xenopus laevis); test: cryo-EM structure; remark: listed apart in the source

## A2Moo (ovomacroglobulin), the Xenopus laevis egg Alpha-2-Macroglobulin homolog (from UniProt A0A8J1L4C4 1-1441) (natural protein)
[1]
  stoichiometry N: 4
[2]
  stoichiometry N: 4
